This is an account of results in the supplement of paper PMC7877785.

This series in a line: self-splicing fitness, log relative to wild type (ln ratio); higher = more splicing; Tetrahymena group I intron in knt gene, E. coli kanamycin selection, DiMSum; sequences stand for … in CUCUCU…GGAGGGAAAAGUUAUCAGGCAUGCACCUGGUAGCUAGUCUUUAAACCAAUAGAUUGCAUCGGUUUAAAAGGCAAGACCGUCAAAUUGCGGGAAAGGGGUCAACAGCCGUUCAGUACCAAGUCUCAGGGGAAACUUUGAGAUGGCCUUGCAAAGGGUAUGGUAAUAAGCUGACGGACAUGGUCCUAACCACGCAGCCAAGUCCUAAGUCAACAGAUCUUCUGUUGAUAUGGAUGCAGUUCACAGACUAAAUGUCGGUCGGGGAAGAUGUAUUCUUCUCAUAAGAUAUAGUCGGACCUCUCCUUAAUGGGAGCUAGCGGAUGAAGUGAUGCAACACUGGAGCCGCUGGGAACUAAUUUGUAUGCGAAAGUAUAUUGAUUAGUUUUGGAGUACUCGUGGUCG
The method, boiled down: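 Colonies from six replicate transformations of E. coli BL21(DE3) were pooled and amplicon-sequenced on an Illumina HiSeq 2500. The library placed an intron with all eight P1ex-region nucleotides randomised inside the knt kanamycin-resistance gene on pET-22b(+), and cells grew overnight at 37°C or 30°C on LB agar with or without 25 μg/mL kanamycin (plus 100 μg/mL carbenicillin, 50 μM IPTG, 0.2% rhamnose). Fitness is the DiMSum error-weighted combination of wild-type-normalised replicate fold changes, kanamycin versus none.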

± gives the uncertainty stated by the source.

For AUGCAGCAAUAUUACGUUCU, the “self-splicing fitness (ln)” value by setting is: (30 °C) -0.207 ± 0.058; (37 °C) 0.262 ± 0.079.

For AUGGAGCAAUAUUACGAACA, the “self-splicing fitness (ln)” value (30 °C) was -1.55 ± 0.38. Regarding AUGGAGCAAUAUUACGACGA, where the note is “37 °C”, the “self-splicing fitness (ln)” value was 0.0911 ± 0.24. For AUGGAGCAAUAUUACGAUCU, the “self-splicing fitness (ln)” value (37 °C) was -0.713 ± 0.31.

In the case of AUGGAGCAAUAUUACGCAAA, the “self-splicing fitness (ln)” value (30 °C) was -2.21 ± 0.36. Turning to AUGGAGCAAUAUUACGCAAU, the “self-splicing fitness (ln)” value (30 °C) is -1.33 ± 0.19 and the “self-splicing fitness (ln)” value (37 °C) was -1.44 ± 0.24.

AUGGAGCAAUAUUACGCAGA: the “self-splicing fitness (ln)” value (30 °C) is -2.19 ± 0.32. Consider AUGGAGCAAUAUUACGCAGG, for which the “self-splicing fitness (ln)” value runs as follows: (30 °C) -3.69 ± 0.26; (37 °C) -2.89 ± 0.4. Consider AUGGAGCAAUAUUACGCCCA, for which the “self-splicing fitness (ln)” value is, setting by setting: (30 °C) -1.95 ± 0.27; (37 °C) -1.03 ± 0.26. Consider AUGGAGCAAUAUUACGCGAG, for which the “self-splicing fitness (ln)” value (30 °C) is -2.22 ± 0.3.

As for AUGGAGCAAUAUUACGGCGG, the “self-splicing fitness (ln)” value by setting is: (30 °C) -3.85 ± 0.37; (37 °C) -1.82 ± 0.34.

For AUGGAGCAAUAUUACGGUUA, for the setting “37 °C”, the “self-splicing fitness (ln)” value is -2.16 ± 0.34. For AUGGAGCAAUAUUACGGUUC, the “self-splicing fitness (ln)” value is -3.93 ± 0.42 (30 °C) and -2.56 ± 0.38 (37 °C). AUGGAGCAAUAUUACGUAAG: the “self-splicing fitness (ln)” value (30 °C) is -2.69 ± 0.2 and the “self-splicing fitness (ln)” value (37 °C) was -0.735 ± 0.17.

AUGGAGCAAUAUUACGUAUU: the “self-splicing fitness (ln)” value is -3.29 ± 0.24 (30 °C) and -2.21 ± 0.16 (37 °C). The matching figures for AUGGAGCAAUAUUACGUCAG: -2.47 ± 0.32 and -1.41 ± 0.44. Turning to AUGGAGCAAUAUUACGUUCU, the “self-splicing fitness (ln)” value runs as follows: (30 °C) -2.64 ± 0.22; (37 °C) -3.2 ± 0.4. On to AUGGAGCAAUAUUACGUUUG, for which the “self-splicing fitness (ln)” value reads like this: (30 °C) -3.38 ± 0.29; (37 °C) -2.58 ± 0.36. The matching figures for AUGUAGCAAUAUUACGAAAU: -1.92 ± 0.086 and -0.989 ± 0.11.

Regarding AUGUAGCAAUAUUACGAAUG, the “self-splicing fitness (ln)” value by setting is: (30 °C) -2.89 ± 0.28; (37 °C) -2.37 ± 0.29. AUGUAGCAAUAUUACGACCA: the “self-splicing fitness (ln)” value runs as follows: (30 °C) -0.549 ± 0.17; (37 °C) -0.552 ± 0.17. AUGUAGCAAUAUUACGACCC: the “self-splicing fitness (ln)” value is, setting by setting: (30 °C) -0.73 ± 0.26; (37 °C) -0.517 ± 0.3. The like results for AUGUAGCAAUAUUACGACGU were, in that order, -0.432 ± 0.087 and 0.442 ± 0.095.

For AUGUAGCAAUAUUACGAGAA, the “self-splicing fitness (ln)” value reads like this: (30 °C) -2.68 ± 0.39; (37 °C) -1.01 ± 0.22.

With AUGUAGCAAUAUUACGAUCC, the “self-splicing fitness (ln)” value is -0.944 ± 0.14 (30 °C) and -0.204 ± 0.15 (37 °C). The matching figures for AUGUAGCAAUAUUACGAUCU: -0.222 ± 0.056 and 0.524 ± 0.073. As to AUGUAGCAAUAUUACGCACA, the “self-splicing fitness (ln)” value is -0.084 ± 0.13 (30 °C) and 0.428 ± 0.17 (37 °C).

Turning to AUGUAGCAAUAUUACGCAGA, the “self-splicing fitness (ln)” value is -2.74 ± 0.36 (30 °C) and 0.109 ± 0.18 (37 °C). The like results for AUGUAGCAAUAUUACGCAUC were, in that order, -3.66 ± 0.27 and -2.51 ± 0.45. As for AUGUAGCAAUAUUACGCCAC, the “self-splicing fitness (ln)” value (30 °C) was -3.49 ± 0.36. As for AUGUAGCAAUAUUACGCGAG, the “self-splicing fitness (ln)” value is, setting by setting: (30 °C) -1.71 ± 0.13; (37 °C) -0.706 ± 0.13. The matching figures for AUGUAGCAAUAUUACGCGGA: -2.41 ± 0.3 and -1.09 ± 0.2. Take AUGUAGCAAUAUUACGCUGG: the “self-splicing fitness (ln)” value was -3.03 ± 0.14 (30 °C) and -1.92 ± 0.16 (37 °C). The matching figures for AUGUAGCAAUAUUACGGGCC: -2.93 ± 0.35 and -1.86 ± 0.32. The like results for AUGUAGCAAUAUUACGGGCU were, in that order, -2.18 ± 0.16 and -0.877 ± 0.16. Regarding AUGUAGCAAUAUUACGUACA, the “self-splicing fitness (ln)” value is, setting by setting: (30 °C) -0.425 ± 0.14; (37 °C) -0.328 ± 0.16.
